Laboratory results reported in article PMC4755545.

Target: TAP-tagged Lid1 (Apc4), subunit of the APC/C (S. pombe) (UniProt O42839)
Assay: co-IP; Apc4-TAP pulled down with IgG Dynabeads from extracts of cdc25-22 cells released from G2 into mitosis at 25°C, carbendazim added after 20 min, time points every 15 min; blots for Mad3p (anti-GFP) and Mad2p; lysis buffer 50 mM HEPES pH 7.5, 75 mM KCl, 0.1% TritonX-100; strains wild type, mad3-KEN1, mad3-KEN2, mad3-C9A, mad2-S92A, mad3-C9A mad2-S92A

Sequence of UniProt O42839 (O42839 whole entry): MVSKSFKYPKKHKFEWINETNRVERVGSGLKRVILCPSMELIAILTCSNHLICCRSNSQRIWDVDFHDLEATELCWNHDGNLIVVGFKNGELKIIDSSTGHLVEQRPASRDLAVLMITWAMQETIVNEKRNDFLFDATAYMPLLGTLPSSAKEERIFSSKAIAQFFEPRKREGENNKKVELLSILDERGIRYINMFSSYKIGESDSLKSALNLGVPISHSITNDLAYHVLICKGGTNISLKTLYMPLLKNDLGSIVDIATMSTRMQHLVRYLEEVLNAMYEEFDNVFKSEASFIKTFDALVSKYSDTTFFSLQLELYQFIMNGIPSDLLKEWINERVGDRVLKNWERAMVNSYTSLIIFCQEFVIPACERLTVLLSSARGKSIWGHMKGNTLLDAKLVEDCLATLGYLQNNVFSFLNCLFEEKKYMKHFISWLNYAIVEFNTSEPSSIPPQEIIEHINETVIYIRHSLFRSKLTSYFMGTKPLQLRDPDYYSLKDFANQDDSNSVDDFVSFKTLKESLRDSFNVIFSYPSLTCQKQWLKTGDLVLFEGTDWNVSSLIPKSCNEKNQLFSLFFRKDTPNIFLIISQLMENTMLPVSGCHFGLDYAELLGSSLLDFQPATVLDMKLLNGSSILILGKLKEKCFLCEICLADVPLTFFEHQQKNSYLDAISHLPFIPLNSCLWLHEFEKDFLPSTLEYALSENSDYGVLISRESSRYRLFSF

| Substance | level bound to the APC/C as percent of wild type (mad3-C9A mad2-S92A strain, 45 and 60 min) | MCC-APC/C level as percent of wild type, 60 min |
| --- | --- | --- |
| Mad3-C9A tagged with GFP (from UniProt O59767 1-310) (natural protein) | 20% | – |
| Mad3-KEN2 mutant tagged with GFP (from UniProt O59767 1-310) (natural protein) | – | 65% |
